B1: Merlin (Homo sapiens), P35240 (parent)
chain: MAGAIASRMSFSSLKRKQPKTFTVRIVTMDAEMEFNCEMKWKGKDLFDLVCRTLGLRETWFFGLQYTIKDTVAWLKMDKKVLDHDVSKEEPVTFHFLAKFYPENAEEELVQEITQHLFFLQVKKQILDEKIYCPPEASVLLASYAVQAKYGDYDPSVHKRGFLAQEELLPKRVINLYQMTPEMWEERITAWYAEHRGRARDEAEMEYLKIAQDLEMYGVNYFAIRNKKGTELLLGVDALGLHIYDPENRLTPKISFPWNEIRNISYSDKEFTIKPLDKKIDVFKFNSSKLRVNKLILQLCIGNHDLFMRRRKADSLEVQQMKAQAREEKARKQMERQRLAREKQMREEAERTRDELERRLLQMKEEATMANEALMRSEETADLLAEKAQITEEEAKLLAQKAAEAEQEMQRIKATAIRTEEEKRLMEQKVLEAEVLALKMAEESERRAKEADQLKQDLQEAREAERRAKQKLLEIATKPTYPPMNPIPAPLPPDIPSFNLIGDSLSFDFKDTDMKRLSMEIEKEKVEYMEKSKHLQEQLNELKTEIEALKLKERETALDILHNENSDRGGSSKHNTIKKLTLQSAKSRVAFFEEL
partner: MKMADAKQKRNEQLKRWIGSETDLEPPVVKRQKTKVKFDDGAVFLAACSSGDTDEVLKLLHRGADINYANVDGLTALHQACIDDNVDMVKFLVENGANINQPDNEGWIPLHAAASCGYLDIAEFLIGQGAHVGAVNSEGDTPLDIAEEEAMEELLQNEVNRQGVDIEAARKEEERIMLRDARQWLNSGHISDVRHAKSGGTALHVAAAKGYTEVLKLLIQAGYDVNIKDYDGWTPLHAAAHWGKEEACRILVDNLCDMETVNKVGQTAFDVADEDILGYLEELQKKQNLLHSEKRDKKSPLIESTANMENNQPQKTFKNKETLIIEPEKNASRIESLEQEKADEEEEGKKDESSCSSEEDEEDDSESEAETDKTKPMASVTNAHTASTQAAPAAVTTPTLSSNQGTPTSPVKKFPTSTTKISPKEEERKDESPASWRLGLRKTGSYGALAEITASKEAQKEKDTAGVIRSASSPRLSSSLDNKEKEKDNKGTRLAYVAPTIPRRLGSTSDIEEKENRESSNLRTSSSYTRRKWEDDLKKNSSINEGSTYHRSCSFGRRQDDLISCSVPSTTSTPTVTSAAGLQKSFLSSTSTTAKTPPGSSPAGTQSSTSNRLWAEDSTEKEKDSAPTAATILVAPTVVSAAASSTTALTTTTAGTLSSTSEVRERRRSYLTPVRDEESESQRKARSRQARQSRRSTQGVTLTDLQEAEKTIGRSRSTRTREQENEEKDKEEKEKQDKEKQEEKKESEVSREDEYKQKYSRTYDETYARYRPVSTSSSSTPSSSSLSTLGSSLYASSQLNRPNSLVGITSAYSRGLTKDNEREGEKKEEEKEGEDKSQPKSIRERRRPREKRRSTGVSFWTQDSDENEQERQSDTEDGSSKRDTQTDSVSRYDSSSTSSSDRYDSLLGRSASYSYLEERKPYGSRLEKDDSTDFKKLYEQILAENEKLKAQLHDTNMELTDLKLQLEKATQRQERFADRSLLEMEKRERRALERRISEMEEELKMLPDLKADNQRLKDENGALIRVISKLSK

Variants of: B1
Details: with mypt1_rat Ppp1r12a

Variant	effect of a mutation on the interaction
S518A	decreasing interaction
